The nature of data set [1]: IFA of co-assembled filaments, SW13 vim− cells. Particulars: glycan lost; control: WT NF-L.
The nature of data set [2]: live-cell imaging, rat hippocampal neuron axons. Conditions: glycan lost; control: WT NF-L.
The next data set in a line: IP/IB, baseline. Particulars: glycan lost; control: WT NF-L.
The nature of data set [3]: differential extraction, NEFL−/− 293T, no OGT. Particulars: glycan lost; control: WT NF-L without OGT.
A further data set in a line: IP/IB. Particulars: glycan gained; control: WT NF-L without OGT.
Data set [4] can be described thus: differential extraction, urea-fraction NF-L, 293T. Conditions: glycan gained; control: WT NF-L without OGT.
Data set [5] in a line: IFA of filaments, NEFL−/− SH-SY5Y. Particulars: glycan gained; control: WT NF-L without OGT.

B1: neurofilament-light (NF-L): NF-L4A (protein)
parent chain: MSSFSYEPYYSTSYKRRYVETPRVHISSVRSGYSTARSAYSSYSAPVSSSLSVRRSYSSSSGSLMPSLENLDLSQVAAISNDLKSIRTQEKAQLQDLNDRFASFIERVHELEQQNKVLEAELLVLRQKHSEPSRFRALYEQEIRDLRLAAEDATNEKQALQGEREGLEETLRNLQARYEEEVLSREDAEGRLMEARKGADEAALARAELEKRIDSLMDEISFLKKVHEEEIAELQAQIQYAQISVEMDVTKPDLSAALKDIRAQYEKLAAKNMQNAEEWFKSRFTVLTESAAKNTDAVRAAKDEVSESRRLLKAKTLEIEACRGMNEALEKQLQELEDKQNADISAMQDTINKLENELRTTKSEMARYLKEYQDLLNVKMALDIEIAAYRKLLEGEETRLSFTSVGSITSGYSQSSQVFGRSAYGGLQTSSYLMSTRSFPSYYTSHVQEEQIEVEETIEAAKAEEAKDEPPSEGEAEEEEKDKEEAEEEEAAEEEEAAKEESEEAKEEEEGGEGEEGEETKEAEEEEKKVEGAGEEQAAKKKD
On to B1, for which the oligomerisation result in data set [1] was “decreases”. For the same protein, the “other: suppression of mitochondrial motility” value in data set [2] is on record as “abolishes”. Besides, in “IP/IB, baseline”, the “other: NF-L phosphorylation” value is “increases”.

B2: neurofilament-light (NF-L): T21A (protein)
parent chain: B1 parent chain
On to B2, for which the oligomerisation result in data set [3] is “no change”.

B3: neurofilament-light (NF-L): S34A (protein)
parent chain: B1 parent chain
B3: the oligomerisation result in data set [3] was “no change”.

B4: neurofilament-light (NF-L): S431A (protein)
parent chain: B1 parent chain
Take B4: the oligomerisation entry in data set [3] was “no change”.

B5: neurofilament-light (NF-L): NF-L5A (protein)
parent chain: B1 parent chain
For B5, the “other: NF-L phosphorylation” value in the data set “IP/IB, baseline” is on record as “increases”.

B6: neurofilament-light (NF-L): S48A (protein)
parent chain: B1 parent chain
With B6, the oligomerisation result in data set [3] is “no change”.

B7: neurofilament-light (NF-L): OGT co-expression (protein)
parent chain: B1 parent chain
B7: the “other: NF-L phosphorylation” value in the data set “IP/IB” is on record as “decreases”. Further, the oligomerisation entry in data set [4] and in data set [5] was “decreases” in each case.

B8: neurofilament-light (NF-L): S27A (protein)
parent chain: B1 parent chain
Take B8: the oligomerisation entry in data set [3] was “no change”.

The values are drawn from publication PMC10582078.
